According to patent publication US5508261, “Analogs of glycoprotein hormones having altered receptor binding specificity and activity and methods for preparing and using same” (University of Medicine & Dentistry of New Jersey, dated 1996):
Substitutions are numbered along the chain they refer to.

Key:
[1] = target: rat luteal ovarian LH receptors (rat, UniProt P16235); assay: inhibition of 125I-hCG binding to rat luteal ovarian LH receptors
Experimental: (§1) The concentrations of the analogs were determined by sandwich immunoassay using antibodies B105 and A113. The term "N.D." means not determined because concentrations of analog were not employed high enough to detect 50% inhibition.
An aliquot of the ligation mixture was taken and used to transform DH5-alpha strain E. coli. (obtained from Bethesda Research Laboratories, Gaithersburg, Md.). Plasmid DNAs from ampicillin-resistant DH5-alpha clones were screened by digestion with BglII (which is unique to vectors containing the cassette) and EcoRI (which cuts in the vector). Positive clones were identified by the presence of two fragments (approximately 0.8 Kbp and 2.9 Kbp). […] The remainder of the beta-subunit cDNA (encoding hCGβ amino acids 1–87) was restored by ligation of the 2.3 Kbp PvuI-PvuII fragment of this vector and the 2.9 Kbp PvuI-PvuII fragment from pSVL-hCG-beta'. […] After the DNA was subjected to a dideoxy sequencing procedure to confirm that it encoded "GT" (Table 1), the plasmid DNA was then cotransfected into COS-7 cells (obtained from the American Type Culture Collection) along with pSVL-hCG-alpha, a pSVL-based plasmid encoding the human glycoprotein hormone alpha-subunit (10, 21), using a DEAE-dextran procedure (10).

[2] = target: T1, bovine testes FSH receptors (bovine, UniProt P35376); assay: inhibition of 125I-hFSH binding to bovine testes FSH receptors
Experimental: as §1

[3] = target: T1, bovine testes FSH receptors; assay: inhibition of 125I-hFSH binding to bovine testes FSH receptors (N.D. in Table 3)

B1: recombinant hFSH (ligand)
chain 1: not shown
chain 2: NSCELTNITIAIEKEECRFCISINITWCAGYCYTRDLVYKDPARPKIQKTCTFKELVYETVRVPGCAHHADSLYTYPVALQCHCGKCDSDSTDCTVRGLGPSYCSFGEMKE
[1]
  binding result: no binding

B2: recombinant hCG (ligand)
chain 1: not shown
chain 2: SKEPLRPRCRPINATLAVEKEGCPVCITVNITICAGYCPTMTRVLQGVLPALPQVVCNYRDVRFESIRLPGCPRGVNPVVSYAVALSCQCALCRRSTTDCGGPKDHPLTCDDPRFQDSSSSKAPPPSLPSPSRLPGPSDTPILPQ
[2]
  binding result: no binding

B3: Analog "D" (ligand)
chain 1: not shown
chain 2: B2 chain 2 with R94D, R95S, S96D, T97S
[3]
  binding result: no binding

B4: Analog "Q" (ligand)
chain 1: not shown
chain 2: SKEPLRPRCRPINATLAVEKEGCPVCITVNITICAGYCPTMTRVLQGVLPALPQVVCNYRDVRFESIRLPGCPRGVNPVVSYAVALSCQCALCDSDSTDCGGPKDHPSYCSFGE
[2]
  binding result: no binding
[1]
  activity relative to hCG (LH RECEPTORS; ratio of concentrations for 50% inhibition): 0.15 relative to recombinant hCG

B5: Analog "GT" (ligand)
chain 1: not shown
chain 2: SKEPLRPRCRPINATLAVEKEGCPVCITVNITICAGYCPTMTRVLQGVLPALPQVVCNYRDVRFESIRLPGCPRGVNPVVSYAVALSCQCALCRRSTTDCIHEAIKTNYCTKPQKSY
[3]
  binding result: no binding
[1]
  activity relative to hCG (LH RECEPTORS; ratio of concentrations for 50% inhibition): 0.33 relative to recombinant hCG
